Results as given in patent US6670136 (TRUSTEES OF COLUMBIA UNIVERSITY IN THE CITY OF NEW YORK, dated 2003).

T1: RAGE on bovine aortic endothelial cells (BAEC RAGE) (bovine, UniProt Q28173 23-416)
T1 construct: whole, on cells; The target is endogenous RAGE on confluent BAEC monolayers; also called BAECs; endothelial (EC) RAGE
T1 sequence (looked up): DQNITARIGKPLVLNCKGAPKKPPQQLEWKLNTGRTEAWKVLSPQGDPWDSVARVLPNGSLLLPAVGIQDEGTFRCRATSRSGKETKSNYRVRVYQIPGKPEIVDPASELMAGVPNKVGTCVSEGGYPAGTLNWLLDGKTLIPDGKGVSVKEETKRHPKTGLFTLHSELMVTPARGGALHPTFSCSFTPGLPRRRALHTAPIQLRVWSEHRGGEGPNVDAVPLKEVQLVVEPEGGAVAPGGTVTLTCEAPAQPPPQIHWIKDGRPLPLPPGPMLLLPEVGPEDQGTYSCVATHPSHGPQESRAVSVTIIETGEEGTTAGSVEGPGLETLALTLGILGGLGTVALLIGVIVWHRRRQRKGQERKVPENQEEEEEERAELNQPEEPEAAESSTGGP

B1: purified S100B from human brain (Calbiochem-Novabiochem) (ligand, UniProt P04271 2-92, looked up)
chain: SELEKAMVALIDVFHQYSGREGDKHKLKKSELKELINNELSHFLEEIKEQEVVDKVMETLDNDGDGECDFQEFMAFVAMVTTACHEFFEHE
B2: EN-RAGE (Extracellular Novel RAGE binding protein), recombinant bovine, expressed in Sf9 cells (ligand)
chain: TKLEDHLEGIINIFHQYSVRVGHFDTLNKRELKQLITKELPKTLQNTKDQPTIDKIFQDLDADKDGAVSFEEFVVLVSRVLKTAHIDIHK
notes: Recombinant protein made from a bovine lung cDNA in baculovirus/Sf9; In the cell assays it was unlabelled; also called radiolabelled EN-RAGE

How the values were obtained:
[1] = target: cellular RAGE on human cells (HUVEC, Molt-4, PBMC, Jurkat) (human, UniProt Q15109 23-404); experiment: cell-based or functional assay
Chain of cellular RAGE on human cells (HUVEC, Molt-4, PBMC, Jurkat) (Q15109 23-404): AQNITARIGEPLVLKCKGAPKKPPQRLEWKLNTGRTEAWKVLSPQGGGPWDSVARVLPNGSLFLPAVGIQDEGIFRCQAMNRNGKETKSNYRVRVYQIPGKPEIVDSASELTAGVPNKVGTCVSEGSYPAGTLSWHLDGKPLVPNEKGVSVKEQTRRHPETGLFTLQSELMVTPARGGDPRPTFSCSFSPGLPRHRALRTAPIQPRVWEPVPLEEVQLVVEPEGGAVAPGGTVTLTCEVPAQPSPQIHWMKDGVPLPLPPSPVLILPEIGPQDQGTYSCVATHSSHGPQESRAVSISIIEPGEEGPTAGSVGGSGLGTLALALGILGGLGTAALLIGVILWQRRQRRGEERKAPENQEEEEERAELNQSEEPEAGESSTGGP

[2] = target: T2, RAGE on macrophage-like BV2 cells (macrophage (MP) RAGE) (UniProt Q62151 23-402, limits assumed); experiment: binding to macrophage RAGE in culture wells
T2 construct: whole, on cells; also called BV-2 macrophages
T2 sequence (Q62151 23-402 limits assumed): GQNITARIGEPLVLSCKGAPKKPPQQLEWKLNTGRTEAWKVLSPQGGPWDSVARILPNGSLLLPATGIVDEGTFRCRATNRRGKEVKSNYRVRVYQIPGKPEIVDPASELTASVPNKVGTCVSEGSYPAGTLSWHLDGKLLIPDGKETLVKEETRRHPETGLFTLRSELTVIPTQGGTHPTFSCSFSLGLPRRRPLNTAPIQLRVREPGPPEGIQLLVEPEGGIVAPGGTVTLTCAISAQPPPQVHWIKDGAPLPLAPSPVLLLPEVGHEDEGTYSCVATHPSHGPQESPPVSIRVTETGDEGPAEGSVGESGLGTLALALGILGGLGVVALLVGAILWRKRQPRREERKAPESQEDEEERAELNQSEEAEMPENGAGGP

[3] = target: T3, human soluble RAGE (sRAGE), prepared from a baculovirus expression system (human, UniProt Q15109 23-342); experiment: binding to immobilized RAGE in culture wells
T3 construct: extracellular domain; Murine sRAGE was used only in the in vivo studies; also called purified RAGE; immobilized RAGE
T3 sequence (Q15109 23-342): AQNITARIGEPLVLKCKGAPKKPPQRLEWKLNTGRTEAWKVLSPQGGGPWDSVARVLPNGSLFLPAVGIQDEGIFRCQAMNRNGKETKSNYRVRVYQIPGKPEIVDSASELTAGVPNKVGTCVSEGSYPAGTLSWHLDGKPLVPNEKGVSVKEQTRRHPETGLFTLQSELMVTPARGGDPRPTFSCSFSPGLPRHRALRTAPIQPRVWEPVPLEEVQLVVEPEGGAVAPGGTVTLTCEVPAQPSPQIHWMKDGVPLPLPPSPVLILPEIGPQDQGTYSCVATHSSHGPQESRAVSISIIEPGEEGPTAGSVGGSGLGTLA
Method: (Panel C–D) EN-RAGE binds purified RAGE (C) and BAECs (D): In C, human soluble RAGE was immobilized onto the wells of plastic dishes and in D, confluent BAECs were cultured onto tissue culture-treated wells. […] Where indicated, radiolabelled EN-RAGE (100 nM) was incubated with the indicated amount of excess sRAGE two hours prior to binding assay, or wells were preincubated for two hours with the indicated concentration of rabbit nonimmune IgG, or polyclonal monospecific rabbit anti-EN-RAGE IgG or anti-RAGE: IgG prior to binding assay and results reported as % maximal specific binding ±SD of the mean. These experiments were performed at least five times with analogous results.
(§1) Radioligand binding assays were performed in 96-well dishes to which had been adsorbed either purified human RAGE (5 μg/well) or bovine aortic endothelial cells. In the former case, after adsorption of human soluble RAGE to the plastic dish in carbonate/bicarbonate buffer (pH 9.3) overnight, wells were then washed with PBS containing Tween 20 (0.05%). Unoccupied binding sites on the plastic wells were blocked by incubation with PBS containing calcium/magnesium and bovine serum albumin (1%) for two hours at 37° C. […] Solution was then aspirated from the wells and counted in a gamma counter (LKB, Gaithersburg, Md.).

[4] = target: T1, RAGE on bovine aortic endothelial cells …; experiment: binding to endothelial cell RAGE in culture wells
Method: (§2) Where indicated, radiolabelled EN-RAGE (100 nM) was incubated with the indicated amount of excess sRAGE two hours prior to binding assay, or wells were preincubated for two hours with the indicated concentration of rabbit nonimmune IgG, or polyclonal monospecific rabbit anti-EN-RAGE IgG or anti-RAGE: IgG prior to binding assay and results reported as % maximal specific binding ±SD of the mean. These experiments were performed at least five times with analogous results.
as §1, with “C. After aspiration of the wells, a radioligand binding assay was performed in the presence of the indicated concentration of radiolabelled EN-RAGE ± an 50-fold molar excess of unlabelled EN-RAGE in PBS containing calcium/magnesium and BSA, 0.2%, for 3 hrs at 37° C.” for “C.”, “Md.). […]” for “Md.).”

[5] = target: T1, RAGE on bovine aortic endothelial cells …; experiment: radioligand binding: 125I-EN-RAGE on confluent bovine aortic endothelial cells
Method: as §2
as §1, with “C. After aspiration of the wells, a radioligand binding assay was performed in the presence of the indicated concentration of radiolabelled EN-RAGE ± an 50-fold molar excess of unlabelled EN-RAGE in PBS containing calcium/magnesium and BSA, 0.2%, for 3 hrs at 37° C.” for “C.”, “Md.). […]” for “Md.).”

[6] = target: T3, human soluble RAGE (sRAGE), prepared …; experiment: radioligand binding: 125I-EN-RAGE on human sRAGE adsorbed to plastic wells, with or without 50-fold unlabelled EN-RAGE
Method: as §2
as §1, with “C. After aspiration of the wells, a radioligand binding assay was performed in the presence of the indicated concentration of radiolabelled EN-RAGE ± an 50-fold molar excess of unlabelled EN-RAGE in PBS containing calcium/magnesium and BSA, 0.2%, for 3 hrs at 37° C.” for “C.”, “Md.). […]” for “Md.).”

| Binder | nuclear translocation of NF-kB in HUVEC (EMSA) [1] | adhesion of Molt-4 cells to cultured ECs [1] | expression of cell-surface VCAM-1 on cultured ECs [1] | nuclear NF-kB in HUVEC (EMSA, densitometry) [1] | Kd [2] | Kd [3] | Kd [4] | Kd [5] | Kd [6] |
| --- | --- | --- | --- | --- | --- | --- | --- | --- | --- |
| B1 | ~13.9 fold | – | – | – | – | – | – | – | – |
| B2 | – | 7 fold | 4.3 fold | ~5 fold | ~75 nM | ~75 nM | ~75 nM | ~90.3 nM | ~91 nM |
